Assay: yeast display, Sf9 membrane polyspecificity reagent, FACS + sequencing; frameworks hold sequencing errors
How it was run: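 Using colony PCR, genes from sorted yeast display clones were amplified, then sequenced on MiSeq at 2 × 250 and filtered by CDR length. The clones had been stained with 10% biotinylated, detergent-solubilized Sf9 membrane reagent for 1 hour at 4 °C and sorted by FACS into low and high (top ~1%) gates on anti-HA and streptavidin fluorescence. Polyreactivity labels come from the gate of origin.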

| Sequence | polyreactivity (PSR sort gate) |
| --- | --- |
| QVQLVESGGGLVQAGGSLRLSCAASGGIFWYYAMGWYRQAPGNERELVATISTGGSTKYADSVKGRFTISRDNAKNTVYLQMNSLNPDDTAVYYCNKVFPNLYIYVVRGLIEMDYWGQGTQVTVSS | low polyreactivity |
| QVQLVESGGGLVQAGGSLRLSCAASGGIFYGYAMGWYRQAPGKERELVASITSDGSTYADSVKGRFTISRDNAKNTVYLQMNSLKPEDTAVYYCNKEILVIVTYDYWGQGTQVTVSS | low polyreactivity |
| QVQLVESGGGLVQAGGSLRLSCAASGGIFYGYAMGWYRQAPWKERELVAAISSTGGRTYYADSVKGRFTISRDNAKNTVYLQMNSLKPEVTAVYYCAAEDFTRQFEYWGQGTQVTVSS | low polyreactivity |
| QVQLVESGGGLVQAGGSLRLSCAASGGIFYRNAMGWYRQAPGKERELVAAISSGGGSTYYADSVKGRFTISRDNAKNTVYLQMNSLKPEDTAVYYCARDSYHLYIQPFGYWGQGTQVTVSS | low polyreactivity |
| QVQLVESGGGLVQAGGSLRLSCAASGGIFYRYAMGWYRQAPGKEREFVASITSSGDRTYYADSVKGRFTISRDNAKNTVYLQMNSLKPEDTAVYYCAAVYTAAWGGRYHYWGQGTQVTVSS | high polyreactivity |
| QVQLVESGGGLVQAGGSLRLSCAASGGIIGWNAMGWYRQAPGKERELVATISWSGGSTYYADSVKGRFTISRDNAKNTVYLQMNSLKPEDTAVYYCAVARSAYWYRPAYDYWGQGTQVTVSS | high polyreactivity |
| QVQLVESGGGLVQAGGSLRLSCAASGGIILGYAMRWYRQARGKERELVAAISRSGVSTYYADSVKGRFTISRDNAKNTVYLQMNSLKPEDTAVYYCASDYRYASDYWGLGTQVTVSS | low polyreactivity |
| QVQLVESGGGLVQAGGSLRLSCAASGGILPKNAMGCYRQAPGKQRELVAAISTRGTSTYYADSVKGRFTISRDNAKNTVYLQMNSLKPEDTGVYYCATSRVYIGYDYWGQGTQETVSS | low polyreactivity |
| QVQLVESGGGLVQAGGSLRLSCAASGGILYHYAMGWYRQAPGIERELVAAIRWSGGSTYYADSVKGRFTISRDNAKNTVYLQMNSLKPEDTAVYYCAADVYYYHVLDFDYWGQGTQVTVSS | low polyreactivity |
| QVQLVESGGGLVQAGGSLRLSCAASGGILYYYAMGWYRQAPGKERELVAGISVRGGRTNYADSVKGRFTISRDNAKNTVYLQMNSLKPEDTAVYYCAAETLYTSGYGSWGQGTQVTVSS | low polyreactivity |
| QVQLVESGGGLVQAGGSLRLSCAASGGISAFNSMGWYRQAPGKERELVAAINYRGGTTYYADSVKGRFTISRDNAKNTVYLQMNSLKPEDTAVYYCNKPYYSSTYYYWGQGTQVTVSS | low polyreactivity |
| QVQLVESGGGLVQAGGSLRLSCAASGGIYDSYAMGWYRQAPGKEGEMVASISWSGGSTYYADSVKGRFTISRDNAKNTVYLQMNSLKPEDTAVYYCAADRAYAGRYWKGYHSALYDYWGEGTQVTVSS | low polyreactivity |
| QVQLVESGGGLVQAGGSLRLSCAASGGLFWTYAMGWYRQAPGKERELVATITSGGSTNYADSVKGRFTISRDNAKNTVYLQMNSLKPEETAVYYCNADWWWGYGYWGQGTQVTVSS | low polyreactivity |
| QVQLVESGGGLVQAGGSLRLSCAASGGMLPKNAMGWYRQAPGKVRELVAGISTRGTSTYYADSVKGRFTISRDNAKNTVYLQMNSLKPEDTAVYYCATSRDYIGYDYWGQGTQVTVSS | low polyreactivity |
| QVQLVESGGGLVQAGGSLRLSCAASGGNFEWNAMGWYRQAPGKERELVAAISNTGGSTSYADSVKGRFTISRDNAKNTVYLQMNSLKTEDTAVYYCNTVNRYEFGYWGQGSQVTVSS | high polyreactivity |
| QVQLVESGGGLVQAGGSLRLSCAASGGSYVMGWYRQAPGKERELVAAITFSGRTYYADSVKGRFTISRDNAKNTVYLQMNSLKPEDTAGYYCAARERPGFRRPLTGGYDHWGQVTQVTVSS | high polyreactivity |
| QVQLVESGGGLVQAGGSLRLSCAASGGTFAAYAMGWYRQAPGKERELVAAIDSGGTTKYADSVKGRFTISRDNAKNTVYLQMNSLKPEDTAVYYCAKVTTGFGVETYHGKGNDYWGQGTQVTVSS | low polyreactivity |
| QVQLVESGGGLVQAGGSLRLSCAASGGTFATYAMGWYRQAPGKERELVATIRSGGSTYYADSVKGRFTISRDNAKNTVYLQMNSLKPEDTAVYYCNARAYHKGFYRITYYYWGQGTQVTVSS | high polyreactivity |
| QVQLVESGGGLVQAGGSLRLSCAASGGTFDVYTMGWYRQAPGKERELVAAIDNGGSTNYADSVKGRFTISRDNAKHTVYLQMNSLKPEDTAVYYCAADEVYLFWGIAEFIYDYWGQGTQVTVSS | low polyreactivity |
| QVQLVESGGGLVQAGGSLRLSCAASGGTFEVNAMGWYRQAPGKERELVAAIDTSDGSTYYADSVKGRFTISRDNAKNTVYLQMNSLKPEDTAVYYCAAERLFRFWYSAYERYDYWGQGTQVTVSS | low polyreactivity |
| QVQLVESGGGLVQAGGSLRLSCAASGGTFFVYMGRYRQAPGKERELVAAITGGGGTYYADSVKGRFTISRDNAKNTVYLQMNSLKPEDTAVYYCATRGATSTVPEGDSWGQGTHVTVSS | low polyreactivity |
| QVQLVESGGGLVQAGGSLRLSCAASGGTFGAYAMGWYRQAPGKERELVAAINVGGGSTYYADSVKGRFTISRDNAKNTVYLQMNSLKPEDTAVYYCAKDLYDGYWRGDYWGQGTQVTVSS | low polyreactivity |
| QVQLVESGGGLVQAGGSLRLSCAASGGTFGLDAMGWYRQARGKERELVARISWSSGSTYYADSVKGRFTISRDNAKNTVYLQMNSLKPEDTAVYYCATDTYGAHAFFEFDYWGQGTQVTVSS | low polyreactivity |
| QVQLVESGGGLVQAGGSLRLSCAASGGTFGNNDMGWYRQAPGKERELVAAIRSAGTTYYADSVKGRFTISRDNAKNTVYLQMNSLKPEDTAVYYWNADTTGYWSFGFQYYGEDYWGQGTQVTVSS | low polyreactivity |
| QVQLVESGGGLVQAGGSLRLSCAASGGTFGSNAMGWYRQAPGKERELLAAITSRGGSTSYADSVKGRFTISRDYAKNTVYLQMKSLKPEDTAVYYCASVRYYWRPYVVNFDYWGQGTQVTVSS | high polyreactivity |
| QVQLVESGGGLVQAGGSLRLSCAASGGTFGSNTMGWYRQAPGKERELVAAITSGVSTNYADSVKGRFTISRDNAKNTVYLQMISLKPEDTAVYYCAKDLWSEEYETIITSYGFDYWGQGTQVTLSS | low polyreactivity |
| QVQLVESGGGLVQAGGSLRLSCAASGGTFGSYAMGWSRPAPGKERELVAAIDYSGADTYYADSVKGRFTISRDNAKNTVYLQMNSLKPEDTAVYYCNAEFESGHDLDWYDYWGQGTQVTVSS | low polyreactivity |
| QVQLVESGGGLVQAGGSLRLSCAASGGTFGTYAMGWYRQAPGKERELVAAITRSGGSTYADSVKGRFTISRDNAKNTVYLQMNSMKPEDTAVYYCNTRTTWRRYVVNGYDYWGQGTQVTVSS | low polyreactivity |
| QVQLVESGGGLVQAGGSLRLSCAASGGTFGVNAMGWYRQAPGKDRELVAAISSSGGRTYYADSVKGRFTISRDNAKNTVYLQMNSLKPEDTAVYYCAARNYFWGQGTQVTVSS | low polyreactivity |
| QVQLVESGGGLVQAGGSLRLSCAASGGTFGYNTLGWYRQAPGKERELVAAITGSGGRTYYADSVKGRFTISRDNAKNTVYLQMNSLKPEDTAVYYCNALTYPDYGYWGQGTQVTVSS | low polyreactivity |

— the nanobody polyreactivity screen of Harvey et al. (2022)
